{
  "source": "paper PMC8213806",
  "about": "(Nature Communications, 2021)",
  "binders": {"B1": {"name": "CSPG4^mini (human CSPG4 residues 30–764: two laminin G motifs and first two CSPG repeats) (domain or fragment)", "chain": "ASFFGENHLEVPVATALTDIDLQLQFSTSQPEALLLLAAGPADHLLLQLYSGRLQVRLVLGQEELRLQTPAETLLSDSIPHTVVLTVVEGWATLSVDGFLNASSAVPGAPLEVPYGLFVGGTGTLGLPYLRGTSRPLRGCLHAATLNGRSLLRPLTPDVHEGCAEEFSASDDVALGFSGPHSLAAFPAWGTQDEGTLEFTLTTQSRQAPLAFQAGGRRGDFIYVDIFEGHLRAVVEKGQGTVLLHNSVPVADGQPHEVSVHINAHRLEISVDQYPTHTSNRGVLSYLEPRGSLLLGGLDAEASRHLQEHRLGLTPEATNASLLGCMEDLSVNGQRRGLREALLTRNMAAGCRLEEEEYEDDAYGHYEAFSTLAPEAWPAMELPEPCVPEPGLPPVFANFTQLLTISPLVVAEGGTAWLEWRHVQPTLDLMEAELRKSQVLFSVTRGARHGELELDIPGAQARKMFTLLDVVNRKARFIHDGSEDTSDQLVLEVSVTARVPMPSCLRRGQTYLLPIQVNPVNDPPHIIFPHGSLMVILEHTQKPLGPEVFQAYDPDSACEGLTFQVLGTSSGLPVERRDQPGEPATEFSCRELEAGSLVYVHRGGPAQDLTFRVSDGLQASPPATLKVVAIRPAIQIHRSTGLRLAQGSAMPILPANLSVETNAVGQDVSVLFRVTGALQFGELQKQGAGGVEGAEWWATQAFHQRDVEQGRVRYLSTDPQHHAYDTVENLALEVQ", "notes": "source: FreeStyle HEK 293 cells, secreted, purified (Ni-NTA, Superdex-200)"}, "B2": {"name": "Repeat1-Fc (CSPG4 Repeat1, residues 410–551, fused to the N-terminus of human IgG1 Fc) (Fc fusion)", "chain": "ELPEPCVPEPGLPPVFANFTQLLTISPLVVAEGGTAWLEWRHVQPTLDLMEAELRKSQVLFSVTRGARHGELELDIPGAQARKMFTLLDVVNRKARFIHDGSEDTSDQLVLEVSVTARVPMPSCLRRGQTYLLPIQVNPVND", "notes": "also called CSPG4 decoy; source: FreeStyle HEK 293 cells, secreted, purified (Ni-NTA); not shown: Fc (human IgG1), C-terminal, kept"}, "B3": {"name": "His-tagged CSPG4 Repeat1 (residues 410–551), biotinylated (domain or fragment)", "chain": "B2 chain", "modifications": "biotinylated using EZ-Link NHS-PEG4-Biotin at pH 6.5", "notes": "also called His-tagged Repeat1; source: FreeStyle HEK 293 cells, secreted, purified (Ni-NTA); not shown: 8xHis, N-terminal, kept"}},
  "target": "T1, TcdB1 holotoxin (VPI10463 strain), recombinant full-length, from Bacillus megaterium (Clostridioides difficile (VPI10463 …, UniProt P18177 1-2366))",
  "T1 construct": "source: Bacillus megaterium, purified as described previously",
  "test": "BLI",
  "settings": "both partners purified",
  "data": [
    {"binder": "B1", "values": [
      {"measurement": "binding result", "result": "binds"}
    ]},
    {"binder": "B2", "values": [
      {"measurement": "Kd", "result": "~15.2", "unit": "nM"},
      {"measurement": "koff", "result": "~0.000108", "unit": "s⁻¹"},
      {"measurement": "kon", "result": "~7060", "unit": "M⁻¹ s⁻¹"}
    ]},
    {"binder": "B3", "values": [
      {"measurement": "binding result", "result": "binds"}
    ]}
  ]
}
